Literature values in patent US12129294B2, “Methods of treatment of diseases in which IL-13 activity is detrimental using anti-IL-13 antibodies” (AbbVie Inc., priority 2016, dated 2024).

Tested on: eosinophilic esophagitis (EoE)
Conditions: QAX576 study, N = 17, cited from earlier work

B1: QAX576: anti-IL-13 antibody dectrekumab (QAX-576), comparator study in Table 6 (antibody, chains of the INN, looked up, V domains shown)
VH: EVQLVESGGGVVQPGRSLRLSCAASGFTFSSYGMHWVRQAPGKGLEWVAIIWYDGSNKYYADSVKGRFTISRDNSKNTLYLQMNSLRAEDTAVYYCARLWFGDLDAFDIWGQGTMVTVSS
VL: EIVLTQSPATLSLSPGERAILSCRAGQSVSSYLVWYQQKPGQAPRLLIYDASNRATGIPARFSGSGSGTDFTLTISSLEPEDFAVYYCQQRSSWPPVYTFGQGTKLEIK
EEOC Mean BL (baseline): 35.4
EEOC Peak BL (baseline): 88.2
EEOC Mean post (post treatment): 14.6
